Columns and labels:
[1] = target: T1, cynomolgus tissue factor on HEK293T-cynoTF cells (cynomolgus monkey, UniProt P13726 33-294 (human entry)); test: flow cytometry on HEK293T-cynoTF cells, one-site fit of MFI
T1 construct: stably transfected HEK293T cells
T1 chain: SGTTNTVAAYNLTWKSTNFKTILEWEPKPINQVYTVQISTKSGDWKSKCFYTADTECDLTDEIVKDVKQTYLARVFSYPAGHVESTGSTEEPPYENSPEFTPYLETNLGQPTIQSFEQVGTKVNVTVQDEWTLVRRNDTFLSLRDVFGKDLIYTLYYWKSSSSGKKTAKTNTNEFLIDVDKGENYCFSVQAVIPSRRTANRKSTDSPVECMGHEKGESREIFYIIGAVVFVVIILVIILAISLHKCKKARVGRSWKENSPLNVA
Source text: (§1) HEK293T, BxPC3 cells (TF positive) and NCI-H1703 (TF negative) cells were obtained from ATCC (American Type Culture Collection) and maintained in DMEM: F12 (1:1), high glucose (Corning) supplemented with 10% heat-inactivated fetal bovine serum (ThermoScientific), 1× Penicillin/Streptomycin (Corning) and 2 mmol glutamax (Thermo Fisher Scientific). To generate cells that stably expressing human tissue factor (HEK293T-humanTF) or cynomolgus tissue factor (HEK293T-cynoTF), HEK293T cells were transfected with plasmid vectors that contain the corresponding protein sequence and stable clones were selected with puromycin.
(§2) For a fluorescence-activated cell sorting (FACS) cell-binding assay, cells were collected by Accutase and counted by the Vi-CELL Cell Viability Analyzersharvested and, then re-suspended in FACS buffer (DPBS buffer supplemented with 1% bovine serum albumin). A total of 200,000 cells in 100 μL were incubated on ice with 100 μL of anti-TF antibodies in each well of a 96-well plate. Cells were washed twice with ice-cold FACS buffer and then incubated on ice for 60 mins with 5 μg/mL Alexa 647-labeled donkey anti-human Fc antibody (Jackson ImmunoResearch). Unstained cells and cells stained with secondary antibody alone were used as controls. Cells were washed twice with FACS buffer and analyzed using a BD FACS Canto system. Geometric mean fluorescence intensities (MFI) were fitted using non-linear regression analysis with one site specific binding equation on GraphPad Prism (GraphPad Software; La Jolla, CA).

[2] = target: T2, human tissue factor on cells (human, UniProt P13726 33-295); test: flow cytometry on HEK293T-humanTF cells, one-site fit of MFI
T2 construct: cell-surface TF, transfected (HEK293T-humanTF) or endogenous (tumour lines, keratinocytes); the cell line is named under assay; also called HEK293T-humanTF; TF on BxPC3, primary human keratinocytes, NCI-H292, HCC1954, NCI-H1975
Source text: as §1, §2

[3] = target: T3, cynomolgus tissue factor (cynomolgus TF, Sino Bio #90885-C08H) (cynomolgus monkey, UniProt P13726 33-251 (human entry)); test: Biacore SPR kinetics, antibody captured on anti-Fc, 1:1 Langmuir fit
T3 construct: bought recombinant antigen; also called cyno TF
T3 chain: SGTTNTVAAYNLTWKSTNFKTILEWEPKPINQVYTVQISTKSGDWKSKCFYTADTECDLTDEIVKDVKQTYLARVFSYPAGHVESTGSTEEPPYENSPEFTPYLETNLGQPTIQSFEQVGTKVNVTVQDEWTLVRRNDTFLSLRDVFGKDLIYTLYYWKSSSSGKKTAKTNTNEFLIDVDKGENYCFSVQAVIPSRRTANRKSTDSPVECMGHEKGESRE
Protocol: (§3) Anti-Fc polyclonal antibodies were immobilized onto a CM4 chip (Cytiva #BR100534) using amine coupling chemistry (Human Antibody Capture Kit, Cytiva #BR100839). The immobilization steps were carried out at a flow rate of 25 μL/min in 1×HBS-EP+buffer (Cytiva #BR100669). The sensor surfaces were activated for 7 min with a mixture of N-hydroxysuccinimide (NHS, 0.05 M) and 1-ethyl-3-(3-dimethylaminopropyl)-carbodiimide (EDC, 0.2 M). The anti-Fc polyclonal antibodies were injected over all 4 flow cells at a concentration of 25 μg/mL in 10 mM sodium acetate, pH 4.5, for 7 min. Ethanolamine (1 M, pH 8.5) was injected for 7 min to block any remaining activated groups.
(§4) Off-rate and kinetic binding experiments were performed at 25° C. using 1×HBS-EP+buffer. Antibodies were injected over the anti-Fc surface at a concentration of 3 μg/mL for 12 seconds at a flow rate of 10 μL/min on flow cells 2, 3 and 4, followed by a buffer wash for 30 seconds at the same flow rate. Single point off-rate analysis was carried out using an antigen concentration of 100 nM. […] After capturing ligand (antibody) on the anti-Fc surface, the analyte (human TF, Lake Pharma; cynomolgus TF, Sino Bio #90885-C08H; mouse TF, R&D Systems #3178-PA) was bound for 180 seconds, followed by a 420 second dissociation phase at a flow rate of […]. Between each ligand capture and analyte binding cycle, regeneration was carried out using 2 injections of 10 mM glycine pH 2.0 for 30 seconds at 30 μL/min, followed by a 30 second buffer wash step.
(§5) The data were fit with the Biacore T200 Evaluation software, using a 1:1 Langmuir binding model. KD (affinity, nM) was determined as a ratio of the kinetic rate constants calculated from the fits of the association and dissociation phases.

[4] = target: T4, human tissue factor (human TF, Lake Pharma) (human, UniProt P13726 33-251, limits assumed); test: as above
T4 construct: bought recombinant antigen; also called CD142
Protocol: as §3, §4, §5

[5] = target: T2, human tissue factor on cells; test: flow cytometry on primary human keratinocytes, one-site fit of MFI
Protocol: To evaluate antibody binding activity of the anti-TF antibodies on the adult primary keratinocytes, a total of 100,000 keratinocytes per well were incubated on ice with serial dilutions of anti-TF antibodies in FACS buffer (PBS buffer supplemented with 1% bovine serum albumin, 0.05% sodium azide) for 60 minutes. Cells were washed twice with ice-cold FACS buffer and then incubated with 5 microgram/mL Alexa 647 labeled donkey anti-human Fc antibody (Jackson ImmunoResearch, West Grove, PA) on ice for another 60 minutes. Unstained cells and cells stained with secondary antibodies alone were used as controls. Samples were then washed twice using FACS buffer and analyzed using an Attune flow cytometer (Thermo Fisher). Geometric mean fluorescence intensities were fitted using non-linear regression analysis with one site specific binding equation on GraphPad Prism.

T4 sequence (P13726 33-251 limits assumed): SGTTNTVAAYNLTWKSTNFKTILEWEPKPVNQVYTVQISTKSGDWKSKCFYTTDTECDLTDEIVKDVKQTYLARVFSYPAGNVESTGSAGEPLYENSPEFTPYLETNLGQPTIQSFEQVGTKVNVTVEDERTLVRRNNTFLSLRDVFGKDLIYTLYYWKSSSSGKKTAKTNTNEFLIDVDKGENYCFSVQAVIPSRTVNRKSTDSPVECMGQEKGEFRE

B1: mAb 37: aTF_2842-B01_Hc3_Y180/F404TAG pAzMeF; aTF_2842-B01_Lc2 (antibody, IgG1, V domains shown)
VH: EVQLVESGGGLVQPGGSLRLSCAASGFSISSYDMSWVRQAPGKGLEWIGIIGSNGRTYYPDSVKGRFTISRDNSKNTVTLQMNSLRAEDTAVYYCARGLYDGTGNIWGQGTLVTVSS
VL: ELVMTQSPPTLSLSPGERVTLSCRASQSVYGNNWLSWYQQKPGQAPRLLIYGASKLATSIPARFSGSGSGTQFTLTISSLQPEDFAVYYCQGTYYSGDWYFAFGQGTKVEIKR
modifications: pAzMeF at Y180 and F404 (EU), * in the sequence
notes: unconjugated full-length IgG1/kappa, cell-free expressed; also called 2842-B01 HC3/LC2; 2842-B01-HC3/LC2 Y180/F404
- Bmax (MFI) [1]: 493000 MFI
- Kd [1]: 3.9 nM
- Bmax (MFI) [2]: 334000 MFI
- Kd [2]: 3.9 nM
- Kd [3]: 15.6 nM
- koff [3]: 0.00113 s⁻¹
- kon [3]: 72400 M⁻¹ s⁻¹
- Kd [4]: 7.3 nM
- koff [4]: 0.000418 s⁻¹
- kon [4]: 57200 M⁻¹ s⁻¹
- Kd [5]: 24 nM

— US20250122306A1 (SUTRO BIOPHARMA, published 2025)
